Source: patent publication US20130005646A1 (Novo Nordisk, published 2013)
Starred links: 1 amine or outer side, 2 acyl side, 3 side chain; linkers in the order of their positions; H or OH if unused. Positions of bridges follow the written chain, without caps; N, C: chain ends. *: point of attachment. C20 diacid = O=C(O)CCCCCCCCCCCCCCCCCCC(=O)*; C18 diacid = O=C(O)CCCCCCCCCCCCCCCCC(=O)*; γGlu = O=C(O)[C@H](CCC(=O)[*:2])N[*:1]

T1: rat amylin 3(a) receptor (rat calcitonin(a) receptor + rat RAMP3) (rat, UniProt P32214 25-516; Q9JJ73 23-147)
T1 sequence (looked up) 1: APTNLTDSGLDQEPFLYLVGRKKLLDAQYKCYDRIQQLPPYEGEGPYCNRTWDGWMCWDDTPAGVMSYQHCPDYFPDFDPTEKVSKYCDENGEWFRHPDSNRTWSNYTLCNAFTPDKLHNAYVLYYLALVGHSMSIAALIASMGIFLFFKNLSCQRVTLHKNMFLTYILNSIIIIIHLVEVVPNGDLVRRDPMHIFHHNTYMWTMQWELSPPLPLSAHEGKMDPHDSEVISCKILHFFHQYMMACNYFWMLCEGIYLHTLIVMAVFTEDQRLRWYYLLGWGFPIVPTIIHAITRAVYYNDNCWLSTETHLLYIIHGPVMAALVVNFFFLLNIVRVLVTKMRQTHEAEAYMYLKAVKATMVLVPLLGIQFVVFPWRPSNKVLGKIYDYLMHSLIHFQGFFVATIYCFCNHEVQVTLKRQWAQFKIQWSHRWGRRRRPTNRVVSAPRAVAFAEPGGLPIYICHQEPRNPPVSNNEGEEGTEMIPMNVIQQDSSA
T1 sequence (looked up) 2: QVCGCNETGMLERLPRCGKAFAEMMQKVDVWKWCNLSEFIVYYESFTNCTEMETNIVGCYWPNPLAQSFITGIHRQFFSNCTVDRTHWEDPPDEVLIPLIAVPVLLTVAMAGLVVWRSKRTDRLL

T2: human amylin 3(a) receptor (human calcitonin receptor + RAMP-3) (human, UniProt P30988 25-474; O60896 24-148)
T2 sequence (looked up) 1: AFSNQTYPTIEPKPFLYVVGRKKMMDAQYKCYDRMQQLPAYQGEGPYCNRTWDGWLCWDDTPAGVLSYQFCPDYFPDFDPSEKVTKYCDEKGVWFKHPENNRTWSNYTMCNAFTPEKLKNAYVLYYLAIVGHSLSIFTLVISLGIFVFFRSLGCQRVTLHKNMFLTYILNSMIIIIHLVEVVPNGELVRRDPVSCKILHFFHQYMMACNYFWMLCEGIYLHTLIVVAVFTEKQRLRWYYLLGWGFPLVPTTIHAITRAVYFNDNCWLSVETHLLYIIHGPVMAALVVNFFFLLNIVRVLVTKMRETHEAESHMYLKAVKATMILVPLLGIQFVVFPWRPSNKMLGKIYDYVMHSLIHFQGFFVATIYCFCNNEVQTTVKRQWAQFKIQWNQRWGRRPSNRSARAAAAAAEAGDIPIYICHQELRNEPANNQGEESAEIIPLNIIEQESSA
T2 sequence (looked up) 2: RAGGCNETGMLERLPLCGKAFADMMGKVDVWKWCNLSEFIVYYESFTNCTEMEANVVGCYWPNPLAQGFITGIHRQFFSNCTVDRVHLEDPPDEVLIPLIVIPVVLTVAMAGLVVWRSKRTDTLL

T3: human calcitonin (a) receptor (human, UniProt P30988 25-474)
T3 sequence (looked up): T2 sequence (looked up) 1

T4: rat calcitonin (a) receptor (rat, UniProt P32214 25-516)
T4 sequence (looked up): T1 sequence (looked up) 1

B1: N-alpha-[(S)-4-Carboxy-4-(17-carboxyheptadecanoylamino)butyryl]-Glu-[Glu14,His17]-pramlintide (peptide)
peptide: {C18 diacid-γGlu}-EKCNTATCATQRLAEFLHHSSNNFGPILPPTNVGSNTY-NH2
modifications: disulfide 3-8
SMILES: CC[C@H](C)[C@H](NC(=O)[C@@H]1CCCN1C(=O)CNC(=O)[C@H](Cc1ccccc1)NC(=O)[C@H](CC(N)=O)NC(=O)[C@H](CC(N)=O)NC(=O)[C@H](CO)NC(=O)[C@H](CO)NC(=O)[C@H](Cc1c[nH]cn1)NC(=O)[C@H](Cc1c[nH]cn1)NC(=O)[C@H](CC(C)C)NC(=O)[C@H](Cc1ccccc1)NC(=O)[C@H](CCC(=O)O)NC(=O)[C@H](C)NC(=O)[C@H](CC(C)C)NC(=O)[C@H](CCCNC(=N)N)NC(=O)[C@H](CCC(N)=O)NC(=O)[C@@H](NC(=O)[C@H](C)NC(=O)[C@@H]1CSSC[C@H](NC(=O)[C@H](CCCCN)NC(=O)[C@H](CCC(=O)O)NC(=O)CC[C@H](NC(=O)CCCCCCCCCCCCCCCCC(=O)O)C(=O)O)C(=O)N[C@@H](CC(N)=O)C(=O)N[C@@H]([C@@H](C)O)C(=O)N[C@@H](C)C(=O)N[C@@H]([C@@H](C)O)C(=O)N1)[C@@H](C)O)C(=O)N[C@@H](CC(C)C)C(=O)N1CCC[C@H]1C(=O)N1CCC[C@H]1C(=O)N[C@H](C(=O)N[C@@H](CC(N)=O)C(=O)N[C@H](C(=O)NCC(=O)N[C@@H](CO)C(=O)N[C@@H](CC(N)=O)C(=O)N[C@H](C(=O)N[C@@H](Cc1ccc(O)cc1)C(N)=O)[C@@H](C)O)C(C)C)[C@@H](C)O
B2: N-alpha-[(S)-4-Carboxy-4-(19-carboxynonadecanoylamino)butyryl]-Glu-[Glu14,His17,His35]-pramlintide (peptide)
peptide: {C20 diacid-γGlu}-EKCNTATCATQRLAEFLHHSSNNFGPILPPTNVGSHTY-NH2
modifications: disulfide 3-8; not fully specified; printed as N-alpha-[(S)-4-Carboxy-4-(19-carboxynonadecanoylamino)butyryl]-Glu-[Glu14,His17,His35]-pramlintide
B3: N-alpha-[(S)-4-Carboxy-4-(17-carboxyheptadecanoylamino)butyryl]-[His1,Glu14,His17]-pramlintide (peptide)
peptide: {C18 diacid-γGlu}-HCNTATCATQRLAEFLHHSSNNFGPILPPTNVGSNTY-NH2
modifications: disulfide 2-7; not fully specified; printed as N-alpha-[(S)-4-Carboxy-4-(17-carboxyheptadecanoylamino)butyryl]-[His1,Glu14,His17]-pramlintide
B4: N-alpha-[(S)-4-Carboxy-4-(17-carboxyheptadecanoylamino)butyryl]-[Glu14,His17]-pramlintide (peptide)
peptide: {C18 diacid-γGlu}-KCNTATCATQRLAEFLHHSSNNFGPILPPTNVGSNTY-NH2
modifications: disulfide 2-7; not fully specified; printed as N-alpha-[(S)-4-Carboxy-4-(17-carboxyheptadecanoylamino)butyryl]-[Glu14,His17]-pramlintide
B5: N-alpha-[(S)-4-Carboxy-4-(19-carboxynonadecanoylamino)butyryl]-[Glu14,His17,His35]-pramlintide (peptide)
peptide: {C20 diacid-γGlu}-KCNTATCATQRLAEFLHHSSNNFGPILPPTNVGSHTY-NH2
modifications: disulfide 2-7
SMILES: CC[C@H](C)[C@H](NC(=O)[C@@H]1CCCN1C(=O)CNC(=O)[C@H](Cc1ccccc1)NC(=O)[C@H](CC(N)=O)NC(=O)[C@H](CC(N)=O)NC(=O)[C@H](CO)NC(=O)[C@H](CO)NC(=O)[C@H](Cc1c[nH]cn1)NC(=O)[C@H](Cc1c[nH]cn1)NC(=O)[C@H](CC(C)C)NC(=O)[C@H](Cc1ccccc1)NC(=O)[C@H](CCC(=O)O)NC(=O)[C@H](C)NC(=O)[C@H](CC(C)C)NC(=O)[C@H](CCCNC(=N)N)NC(=O)[C@H](CCC(N)=O)NC(=O)[C@@H](NC(=O)[C@H](C)NC(=O)[C@@H]1CSSC[C@H](NC(=O)[C@H](CCCCN)NC(=O)CC[C@H](NC(=O)CCCCCCCCCCCCCCCCCCC(=O)O)C(=O)O)C(=O)N[C@@H](CC(N)=O)C(=O)N[C@@H]([C@@H](C)O)C(=O)N[C@@H](C)C(=O)N[C@@H]([C@@H](C)O)C(=O)N1)[C@@H](C)O)C(=O)N[C@@H](CC(C)C)C(=O)N1CCC[C@H]1C(=O)N1CCC[C@H]1C(=O)N[C@H](C(=O)N[C@@H](CC(N)=O)C(=O)N[C@H](C(=O)NCC(=O)N[C@@H](CO)C(=O)N[C@@H](Cc1c[nH]cn1)C(=O)N[C@H](C(=O)N[C@@H](Cc1ccc(O)cc1)C(N)=O)[C@@H](C)O)C(C)C)[C@@H](C)O
B6: N-alpha-[(S)-4-Carboxy-4-(19-carboxynonadecanoylamino)butyryl]-[Glu14,Arg17,His35]-pramlintide (peptide)
peptide: {C20 diacid-γGlu}-KCNTATCATQRLAEFLRHSSNNFGPILPPTNVGSHTY-NH2
modifications: disulfide 2-7
SMILES: CC[C@H](C)[C@H](NC(=O)[C@@H]1CCCN1C(=O)CNC(=O)[C@H](Cc1ccccc1)NC(=O)[C@H](CC(N)=O)NC(=O)[C@H](CC(N)=O)NC(=O)[C@H](CO)NC(=O)[C@H](CO)NC(=O)[C@H](Cc1c[nH]cn1)NC(=O)[C@H](CCCNC(=N)N)NC(=O)[C@H](CC(C)C)NC(=O)[C@H](Cc1ccccc1)NC(=O)[C@H](CCC(=O)O)NC(=O)[C@H](C)NC(=O)[C@H](CC(C)C)NC(=O)[C@H](CCCNC(=N)N)NC(=O)[C@H](CCC(N)=O)NC(=O)[C@@H](NC(=O)[C@H](C)NC(=O)[C@@H]1CSSC[C@H](NC(=O)[C@H](CCCCN)NC(=O)CC[C@H](NC(=O)CCCCCCCCCCCCCCCCCCC(=O)O)C(=O)O)C(=O)N[C@@H](CC(N)=O)C(=O)N[C@@H]([C@@H](C)O)C(=O)N[C@@H](C)C(=O)N[C@@H]([C@@H](C)O)C(=O)N1)[C@@H](C)O)C(=O)N[C@@H](CC(C)C)C(=O)N1CCC[C@H]1C(=O)N1CCC[C@H]1C(=O)N[C@H](C(=O)N[C@@H](CC(N)=O)C(=O)N[C@H](C(=O)NCC(=O)N[C@@H](CO)C(=O)N[C@@H](Cc1c[nH]cn1)C(=O)N[C@H](C(=O)N[C@@H](Cc1ccc(O)cc1)C(N)=O)[C@@H](C)O)C(C)C)[C@@H](C)O
B7: N-alpha-[(S)-4-Carboxy-4-(19-carboxynonadecanoylamino)butyryl]-Glu-[Glu14,Arg17,His35]-pramlintide (peptide)
peptide: {C20 diacid-γGlu}-EKCNTATCATQRLAEFLRHSSNNFGPILPPTNVGSHTY-NH2
modifications: disulfide 3-8
SMILES: CC[C@H](C)[C@H](NC(=O)[C@@H]1CCCN1C(=O)CNC(=O)[C@H](Cc1ccccc1)NC(=O)[C@H](CC(N)=O)NC(=O)[C@H](CC(N)=O)NC(=O)[C@H](CO)NC(=O)[C@H](CO)NC(=O)[C@H](Cc1c[nH]cn1)NC(=O)[C@H](CCCNC(=N)N)NC(=O)[C@H](CC(C)C)NC(=O)[C@H](Cc1ccccc1)NC(=O)[C@H](CCC(=O)O)NC(=O)[C@H](C)NC(=O)[C@H](CC(C)C)NC(=O)[C@H](CCCNC(=N)N)NC(=O)[C@H](CCC(N)=O)NC(=O)[C@@H](NC(=O)[C@H](C)NC(=O)[C@@H]1CSSC[C@H](NC(=O)[C@H](CCCCN)NC(=O)[C@H](CCC(=O)O)NC(=O)CC[C@H](NC(=O)CCCCCCCCCCCCCCCCCCC(=O)O)C(=O)O)C(=O)N[C@@H](CC(N)=O)C(=O)N[C@@H]([C@@H](C)O)C(=O)N[C@@H](C)C(=O)N[C@@H]([C@@H](C)O)C(=O)N1)[C@@H](C)O)C(=O)N[C@@H](CC(C)C)C(=O)N1CCC[C@H]1C(=O)N1CCC[C@H]1C(=O)N[C@H](C(=O)N[C@@H](CC(N)=O)C(=O)N[C@H](C(=O)NCC(=O)N[C@@H](CO)C(=O)N[C@@H](Cc1c[nH]cn1)C(=O)N[C@H](C(=O)N[C@@H](Cc1ccc(O)cc1)C(N)=O)[C@@H](C)O)C(C)C)[C@@H](C)O
B8: N-alpha-[(S)-4-Carboxy-4-(19-carboxynonadecanoylamino)butyryl]-[Glu14,His17,Pro37]-pramlintide (peptide)
peptide: {C20 diacid-γGlu}-KCNTATCATQRLAEFLHHSSNNFGPILPPTNVGSNTP-NH2
modifications: disulfide 2-7; not fully specified; printed as N-alpha-[(S)-4-Carboxy-4-(19-carboxynonadecanoylamino)butyryl]-[Glu14,His17,Pro37]-pramlintide

The binders below were run against T1, rat amylin 3(a) receptor (rat …) (assay: cell-based or functional assay).

Row | Amylin receptor rat EC50 | Binder
1 | 0.135 nM | B1
2 | 0.643 nM | B2
3 | 0.015 nM | B3
4 | 0.122 nM | B4
5 | 0.262 nM | B5
6 | 0.511 nM | B6
7 | 0.063 nM | B7
8 | 0.16 nM | B8

Each binder was assayed against T2, human amylin 3(a) receptor (human …) (assay: cell-based or functional assay).

Row | Amylin receptor human EC50 | Binder
9 | 0.0739 nM | B1
10 | 0.299 nM | B2
11 | 0.0425 nM | B3
12 | 0.0469 nM | B4
13 | 0.152 nM | B5
14 | 0.111 nM | B6
15 | 0.117 nM | B7
16 | 0.062 nM | B8

Each binder was assayed against T3, human calcitonin (a) receptor (assay: cell-based or functional assay).

Row | CTa receptor human EC50 | Binder
17 | 0.274 nM | B1
18 | 0.352 nM | B2
19 | 0.112 nM | B3
20 | 0.0792 nM | B4
21 | 0.163 nM | B5
22 | 0.387 nM | B6
23 | 0.606 nM | B7
24 | 0.0537 nM | B8

These binders were tested against T4, rat calcitonin (a) receptor (assay: cell-based or functional assay).

Row | CTa receptor rat EC50 | Binder
25 | 2.43 nM | B1
26 | 4.97 nM | B2
27 | 0.375 nM | B3
28 | 0.433 nM | B4
29 | 0.673 nM | B5
30 | 2.84 nM | B6
31 | 2.23 nM | B7
32 | 0.076 nM | B8
